The values below come from patent US8168592B2 (Amgen Inc., priority 2005, dated 2012).

Data set [1] can be described thus: in vitro metabolic identification in 100% monkey plasma, LC-MS/MS. It is filed as in vitro ADME. To be noted: 100% Cynomolgus monkey plasma, 4 hours. The text has this: Extracted samples were collected for LC-MS/MS analysis.
(Also, see Example 7 herein below for comparison with in vivo metabolic identification.)

Data set [2] is described as follows: in vivo metabolic identification in monkey plasma during intravenous infusion. More on the design: species or system Cynomolgus monkey. Particulars: 20 min during intravenous infusion. The text has this: Monkey pharmacokinetic studies.
Samples were taken as described above. After thawing, each 100-11 plasma sample was extracted by solid phase extraction. Extracted samples were collected for LC-MS/MS analysis.

A short description of data set [3]: solubility in aqueous conjugation buffers. In kind it is physicochemical. As to the method:
Co-solvent mediated conjugation of vehicle to CGRP peptide antagonists. […] In an attempt to better solubilize these less soluble peptides during the conjugation reaction, and thereby improve conjugate yields, a variety of alcohol co-solvents were tested in the conjugation reaction.

Data set [4] in a line: stability in undiluted rat plasma at 37° C. by ELISA. In kind it is in vitro ADME. From the text: (§1) Examples of this approach are the replacement of arginine (R) with citrulline, and phenylalanine (F) with 3-(1-naphthyl)alanine. We have also cyclized side-chain to side-chain (for example, i, i+4 residues) to form ring structures which also increase overall plasma stability (See, e.g., FIG. 3 and FIG. 13).

Data set [5] is described as follows: stability in undiluted Cynomolgus plasma at 37° C. by ELISA. In kind it is in vitro ADME. To be noted: cynomolgus monkey.
Description: as §1

Data set [6] is described as follows: stability in undiluted human plasma at 37° C. by ELISA. In kind it is in vitro ADME.
Description: as §1

The conditions of data set [7]: rat, in vivo, 2 mg/kg.
Description: Rat pharmacokinetic studies. […] There were three rats per group (n=3), each weighing 250-325 g. Each group received either a 2 mg/kg intravenous or subcutaneous discrete administration. The approximate dose volume was 0.3 mL per rat. Approximately 0.25 mL of whole blood was taken per time point at the following post-dose collection times for the intravenous groups (in hours): 0.083, 0.25, 0.5, 1, 2, 4, 6, 8, 24, 48, 72, 96 and the following time points for the subcutaneous groups (in hours): 0.25, 0.5, 1, 2, 4, 6, 8, 24, 48, 72, 96. Whole blood samples were collected in microtainer vials containing EDTA as anticoagulant and were kept on wet ice until processed for plasma. The plasma was obtained by centrifuging the whole blood for approximately 5 min at 11,500 rpm. Plasma was transferred to new tubes and stored frozen at approximately −70° C. until quantitative analysis. […] The individual sample concentrations for each time point were averaged (n=3) within a given dose group using Excel 2000 software. The averaged plasma concentration-time data were analyzed by noncompartmental methods using WinNonlin v.3.3 software. Nominal sample times were used in the pharmacokinetic analysis. The area under the concentration-time curve was calculated using the linear/log trapezoidal method to determine exposure.
Data set [8] addresses rat CGRP1 receptor (Rattus norvegicus, UniProt Q63118+Q9JJ74). Nature of the data set: in vitro functional potency against the rat ortholog of the CGRP1 receptor. In kind it is cell-based. From the text: Results and Conclusions. […] This was reflected by an apparently similar rightward shift in potency in vivo.
In data set [9] the target is T1, CGRP1 receptor (Homo sapiens, UniProt O60894+Q16602).
T1 construct: SK-N-MC cells express CRLR and RAMP1, which form CGRP1 receptor; endogenous in cells; host or cells: SK-N-MC human neuroblastoma cells
Description: in vitro CGRP1 receptor mediated cAMP assay in SK-N-MC cells. In kind it is cell-based. To be noted: cAMP assay. An outline of the steps:
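Human SK-N-MC neuroblastoma cells, which endogenously express CRLR/RAMP1, were plated two days before assay and preincubated in plasma-free medium for 15 minutes at room temperature. Cells were then lysed for 30 minutes at 37° C, and cAMP in the lysates was quantified by competitive cAMP-AP chemiluminescent ELISA.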

The conditions of data set [10]: mouse.
Description: Peptide samples at 2 mg/ml in PBS were spiked with 5% mouse plasma and analyzed by sandwich ELISA (as described in Example 3 herein above) over 48 hours at room temperature. Peptide integrity was determined by sandwich ELISA requiring intact peptide termini.

Read-outs that look alike come from different tables or passages of the source. PEG = not defined here

T1 sequence (Q16602 23-461): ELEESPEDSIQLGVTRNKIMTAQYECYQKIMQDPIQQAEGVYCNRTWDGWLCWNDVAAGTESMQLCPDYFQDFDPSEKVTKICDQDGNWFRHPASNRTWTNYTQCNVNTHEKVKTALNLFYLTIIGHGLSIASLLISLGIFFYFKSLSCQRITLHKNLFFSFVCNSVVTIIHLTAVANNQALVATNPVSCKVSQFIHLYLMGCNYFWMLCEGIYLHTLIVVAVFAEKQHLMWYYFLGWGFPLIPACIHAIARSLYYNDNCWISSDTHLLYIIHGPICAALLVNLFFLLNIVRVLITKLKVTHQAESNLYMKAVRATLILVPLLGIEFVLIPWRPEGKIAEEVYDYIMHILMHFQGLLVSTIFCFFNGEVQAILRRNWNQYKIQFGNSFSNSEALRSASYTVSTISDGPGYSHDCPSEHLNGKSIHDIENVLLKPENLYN
T1 sequence (O60894 27-148): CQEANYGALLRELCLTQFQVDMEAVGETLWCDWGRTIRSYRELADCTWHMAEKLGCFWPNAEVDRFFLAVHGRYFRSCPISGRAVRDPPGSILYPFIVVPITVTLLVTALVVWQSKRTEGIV
rat CGRP1 receptor, sequence (Q63118 24-464): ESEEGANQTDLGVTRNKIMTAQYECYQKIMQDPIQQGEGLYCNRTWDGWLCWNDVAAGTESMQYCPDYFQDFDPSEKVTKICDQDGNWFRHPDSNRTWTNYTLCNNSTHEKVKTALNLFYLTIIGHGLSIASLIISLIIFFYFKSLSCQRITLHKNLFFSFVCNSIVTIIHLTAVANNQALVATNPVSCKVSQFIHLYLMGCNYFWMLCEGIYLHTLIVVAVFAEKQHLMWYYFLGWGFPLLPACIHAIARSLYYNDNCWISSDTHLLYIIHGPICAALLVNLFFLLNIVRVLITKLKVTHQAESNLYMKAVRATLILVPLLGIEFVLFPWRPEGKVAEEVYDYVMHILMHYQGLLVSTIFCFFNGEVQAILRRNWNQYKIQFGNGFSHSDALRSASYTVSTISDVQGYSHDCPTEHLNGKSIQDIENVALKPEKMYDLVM
rat CGRP1 receptor, sequence (Q9JJ74 27-148): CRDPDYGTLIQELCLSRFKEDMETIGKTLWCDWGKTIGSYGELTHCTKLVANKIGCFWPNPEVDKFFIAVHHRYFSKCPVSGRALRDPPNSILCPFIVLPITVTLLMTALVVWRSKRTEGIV

For the molecule `CC(=O)N[C@@H](Cc1c[nH]c2ccccc12)C(=O)N[C@H](C(=O)N[C@H](C(=O)N[C@@H](Cc1c[nH]cn1)C(=O)N[C@@H](CCCNC(N)=O)C(=O)N[C@@H](CC(C)C)C(=O)N[C@@H](C)C(=O)NCC(=O)N[C@@H](CC(C)C)C(=O)N[C@@H](CC(C)C)C(=O)N[C@@H](CO)C(=O)N[C@@H](CCCNC(N)=O)C(=O)N[C@@H](CO)C(=O)NCC(=O)NCC(=O)N[C@H](C(=O)N[C@H](C(=O)N[C@@H](CCCCNC(=N)N)C(=O)N[C@@H](CCCCN)C(=O)N[C@@H](CC(N)=O)C(=O)N[C@@H](Cc1ccccc1)C(=O)N[C@H](C(=O)N1CCC[C@H]1C(=O)N[C@H](C(=O)N[C@@H](CC(=O)O)C(=O)N[C@H](C(=O)NCC(=O)N1[C@H](C(=O)N[C@@H](Cc2ccccc2)C(=O)N[C@@H](C)C(=O)N[C@@H](Cc2ccccc2)C(N)=O)C[C@@H]2CCCC[C@@H]21)C(C)C)[C@@H](C)O)C(C)C)C(C)C)C(C)C)[C@@H](C)O)C(C)C` [SEQ ID NO:658], the major degradation product entry in [1] was “fragment W7-K25”. Further, in data set [2], the “degradation products in vivo” value is “fragments W7-T9, T30-A36, W7-N26, T30-F37 and W7-hR24”. In addition, the solubility in words entry in data set [3] is recorded as “relatively insoluble”.
For the molecule “Ac-WVTH[Cit]LAGLLS[Cit]SGGVV[hArg]K(20 KPEGald)NFVPTDVGP[1-Nal]AF-NH2 (WVTHXLAGLLSXSGGVVXKNFVPTDVGPXAF; not fully specified; N-acetyl, C-amide, 20 kDa PEG, Cit, hArg, 1-Nal; CGRP peptide; MOD_RES (1)..(1): …ON; MISC_FEATURE (5)..(5): xaa=citrulline; MISC_FEATURE (12)..(12): xaa=citrulline; MISC_FEATURE (18)..(18): xaa=homoarginine; MISC_FEATURE (19)..(19): PEGylated; MISC_FEATURE (29)..(29): xaa=3-(1-naphthyl)alanine; MOD_RES (31)..(31): AMI) [SEQ ID NO: 173]”, the “t1/2 in rat plasma” value in data set [4] was 8 to 9 h. In addition, the “t1/2 in Cynomolgus plasma” value in data set [5] is >24 h. Also, in data set [6], the “t1/2 in human plasma” value was >24 h. Besides, in [7] (iv), the AUC0-inf was 80996 ng·h/mL, the AUC0-t came out at 80440 ng·h/mL and the mean residence time MRT came to 4.97 h. In data set [7] (sc), this molecule yielded an AUC0-t of 4385 ng·h/mL and a F % of 5%.
With “SEQ ID NO:791 (WVTHXLAGLLSXSGGVVRKNFVPTDVGPFAF; not fully specified; CGRP peptide; MOD_RES (1)..(1): …ON; MISC_FEATURE (5)..(5): xaa=citrulline; MISC_FEATURE (12)..(12): xaa=citrulline; MISC_FEATURE (19)..(19): PEGylated; MOD_RES (31)..(31): AMIDATION)”, in [8], the “rightward shift of in vitro potency compared with SEQ ID NO:31” value is listed as “approximately 9 fold”.
Turning to “SEQ ID NO:15 (Ac-WVTHRLAGLLSRSGGVVRK(PEG)NFVPTDVGPFAF-NH2; reading uncertain)”, in data set [9], the “improved potency relative to native CGRP(8-37) (SEQ ID NO:1)” value is given as “about 12 fold” and the “loss in antagonist activity on PEGylation relative to the unconjugated parent peptide” value was “three”. In addition, the “half-life longer than the non-PEGylated parent peptide” value in [10] is “more than 9 fold”.
